Changes are numbered by the printed parent chain. Blank lines part the entries; values can stand above or below the binder they belong to.
Experiments:
[1] = target: T1, Human CLDN4 (on 293T-CLDN4 cells) (human, UniProt O14493 1-209); experiment: flow cytometry (MFI) on 293T-CLDN4 cells
T1 construct: also called Claudin 4
T1 sequence: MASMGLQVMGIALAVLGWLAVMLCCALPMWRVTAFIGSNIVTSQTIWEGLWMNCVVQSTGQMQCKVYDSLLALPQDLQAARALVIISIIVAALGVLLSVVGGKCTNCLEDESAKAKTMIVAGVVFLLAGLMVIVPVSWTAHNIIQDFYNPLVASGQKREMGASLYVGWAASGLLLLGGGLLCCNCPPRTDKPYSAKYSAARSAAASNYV
Method: (§1) The heavy chain variable region of antibody P1 from Example 3 was combined with the light chain variable regions of antibodies P2 and P3 by using molecular cloning, respectively, so as to obtain antibodies M1 and M2. After being prokaryotically expressed and puried, purified single chain antibodies (scFv) were obtained. […] Data were analyzed using FlowJo to calculate mean fluorescence intensity (MFI).

[2] = target: T2, Human CLDN6 (on 293T-CLDN6 cells) (human, UniProt P56747 1-220); experiment: flow cytometry on 293T-CLDN6 cells
T2 construct: In the killing assay it was also endogenous on OVCAR3 and OV90 cells; also called Claudin 6
T2 sequence: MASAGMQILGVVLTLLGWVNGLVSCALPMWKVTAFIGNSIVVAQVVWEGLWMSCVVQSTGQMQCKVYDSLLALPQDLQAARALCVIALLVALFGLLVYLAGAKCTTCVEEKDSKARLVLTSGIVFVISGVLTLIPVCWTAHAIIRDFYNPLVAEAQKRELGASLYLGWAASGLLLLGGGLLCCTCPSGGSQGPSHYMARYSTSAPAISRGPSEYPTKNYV

[3] = target: T3, Human CLDN9 (on 293T-CLDN9 cells) (human, UniProt O95484 1-217); experiment: flow cytometry (MFI) on 293T-CLDN9 cells
T3 construct: also called Claudin 9
T3 sequence: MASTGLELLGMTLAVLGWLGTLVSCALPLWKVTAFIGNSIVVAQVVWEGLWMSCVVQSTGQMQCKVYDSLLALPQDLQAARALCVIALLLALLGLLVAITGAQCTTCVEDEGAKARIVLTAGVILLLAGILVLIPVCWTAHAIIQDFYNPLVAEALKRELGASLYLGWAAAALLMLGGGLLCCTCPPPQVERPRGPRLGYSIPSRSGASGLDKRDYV
Method: as §1

[4] = target: T2, Human CLDN6 (on 293T-CLDN6 cells); experiment: flow cytometry EC50 on 293T-CLDN6 cells, against antibody H1
Method: as §1

[5] = target: T3, Human CLDN9 (on 293T-CLDN9 cells); experiment: flow cytometry on 293T-CLDN9 cells
Method: (§2) After centrifugation, the supernatant was discarded, and the cells were washed with PBS and incubated with Goat-anti-Mouse FITC at 4° C. After centrifugation, the supernatant was discarded, and the cells were washed and detected by flow cytometry. FlowJo v.X.0.7 was used for statistics and GraphPad Prism 8.0 was used for plotting.

[6] = target: T1, Human CLDN4 (on 293T-CLDN4 cells); experiment: flow cytometry on 293T-CLDN4 cells
Method: as §2

B1: antibody M1 (scFv) (scFv, V domains shown)
VH: EVQLVQSGAEVKKPGASVKVSCKASGYTFTGYYMNWVRQAPGQGLEWMGEINPATGSTTYNQKFKARVTITRDTSTSTAYMELSSLRSEDTAVYYCARRDYYLGSNSYALDYWGQGTLVTVSS
VL: DIQMTQSPSSLSASVGDRVTITCQASQSVSNNLNWYQQKPGKAPKLLIYGASKLEDGVPSRFSGSGSGTDFTFTISSLQPEDFATYYCLQHRYMWTFGQGTKVEIK
notes: Tested as a prokaryotically expressed single chain antibody (scFv)
- binding result [1]: no binding (tested: 5 µg/mL)
- EC50 [2]: 23 nM
- binding result [3]: no binding (tested: 5 µg/mL)
- fold improvement in affinity compared with antibody H1 [4]: ~20 fold

B3: Antibody P2 (scFv) (scFv)
scFv: EVQLVQSGAEVKKPGASVKVSCKASGYTFTGYYMNWVRQAPGQGLEWMGEINPATGSTTYNQKFKARVTITRDTSTSTAYMELSSLRSEDTAVYYCARRDYYYGSGFYAMDYWGQGTLVTVSSGGGGSGGGGSGGGGSDIQMTQSPSSLSASVGDRVTITCQASQSVSNNLNWYQQKPGKAPKLLIYGASKLEDGVPSRFSGSGSGTDFTFTISSLQPEDFATYYCLQHRYMWTFGQGTKVEIK
notes: Prokaryotically expressed single chain antibody
- EC50 [2]: 144 nM

B4: Antibody P3 (scFv) (scFv)
scFv: B3 scFv with L227Q, Y231F
notes: as for B3
- EC50 [2]: 555 nM

B5: humanized antibody H1 (scFv-huFc) (Fc fusion)
scFv: B3 scFv with M232L
notes: Tested as scFv-huFc; not shown: human Fc (huFc)
- EC50 [2]: 475 nM
- binding result [5]: no binding (tested: 10 µg/mL)
- binding result [6]: no binding (tested: 10 µg/mL)

The next lines start with the values.

- binding result [1]: no binding (tested: 5 µg/mL)
- EC50 [2]: 24.7 nM
- binding result [3]: no binding (tested: 5 µg/mL)
- fold improvement in affinity compared with antibody H1 [4]: ~20 fold
B2: antibody M2 (scFv) (scFv, V domains shown)
VH: B1 VH
VL: B1 VL with L89Q, Y93F
notes: as for B1

- EC50 [2]: 62.7 nM
B6: Antibody P1 (scFv) (scFv)
scFv: B3 scFv with Y103L, G106N, F107S, M110L, M232L
notes: as for B3

- EC50 [2]: 183 nM
B7: Antibody P4 (scFv) (scFv)
scFv: B3 scFv with L227Q
notes: as for B3
